For five molecules, Kd results are on record in patent US20220064275A1 (SCHOLAR ROCK, published 2022).

The target in assay [1] is T1, human LTBP1-proTGFβ1 complex (human, UniProt Q14766 873-1507).
T1 construct: range 873-1507; biotinylated in Octet and MSD-SET; also called hLTBP1-proTGFβ1; hLTBP1
As to the kind of experiment: BLI (Octet).

Assay [2] addresses T2, human LRRC33-proTGFβ1 complex (human, UniProt Q86YC3 19-650; P01137 30-390).
T2 construct: also called hLRRC33-proTGFβ1; hLRRC33
As to the kind of experiment: BLI (Octet).

Assay [3] addresses T3, human LTBP3-proTGFβ1 complex (human, UniProt Q9NS15 866-1039).
T3 construct: range 866-1039; also called hLTBP3-proTGFβ1; hLTBP3
As to the kind of experiment: BLI (Octet).

The target of assay [4] is T4, human GARP-proTGFβ1 complex (human, UniProt Q14392 20-627; P01137 30-390).
T4 construct: also called hGARP-proTGFβ1; hGARP
T4 sequence (Q14392 20-627, chain 1 of 2): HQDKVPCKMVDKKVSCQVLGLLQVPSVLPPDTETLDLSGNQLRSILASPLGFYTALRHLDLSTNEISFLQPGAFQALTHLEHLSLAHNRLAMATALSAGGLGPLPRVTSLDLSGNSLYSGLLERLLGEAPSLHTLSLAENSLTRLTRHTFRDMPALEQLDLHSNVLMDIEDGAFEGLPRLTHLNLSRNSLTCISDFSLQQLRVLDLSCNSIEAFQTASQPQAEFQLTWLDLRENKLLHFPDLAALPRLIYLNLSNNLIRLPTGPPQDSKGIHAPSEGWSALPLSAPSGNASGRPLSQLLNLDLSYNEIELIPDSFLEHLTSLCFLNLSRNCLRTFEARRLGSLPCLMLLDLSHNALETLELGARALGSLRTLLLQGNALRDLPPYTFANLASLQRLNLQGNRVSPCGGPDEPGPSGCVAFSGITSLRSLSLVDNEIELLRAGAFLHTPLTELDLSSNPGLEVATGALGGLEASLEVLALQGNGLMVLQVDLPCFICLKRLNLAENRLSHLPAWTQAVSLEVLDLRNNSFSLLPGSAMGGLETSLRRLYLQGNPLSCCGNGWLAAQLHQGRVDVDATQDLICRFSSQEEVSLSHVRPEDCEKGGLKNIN
T4 sequence (P01137 30-390, chain 2 of 2): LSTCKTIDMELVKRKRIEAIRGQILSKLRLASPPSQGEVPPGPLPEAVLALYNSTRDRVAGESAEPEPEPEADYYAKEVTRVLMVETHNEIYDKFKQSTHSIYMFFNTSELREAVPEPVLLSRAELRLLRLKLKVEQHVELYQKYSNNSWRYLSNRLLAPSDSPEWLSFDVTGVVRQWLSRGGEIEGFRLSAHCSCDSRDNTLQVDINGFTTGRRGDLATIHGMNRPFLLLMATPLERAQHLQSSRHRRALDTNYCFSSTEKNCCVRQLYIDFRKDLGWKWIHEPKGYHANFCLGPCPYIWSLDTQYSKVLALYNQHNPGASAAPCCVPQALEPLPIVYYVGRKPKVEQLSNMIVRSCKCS
The assay is described as follows: BLI (Octet).

For assay [5], the target named is T1, human LTBP1-proTGFβ1 complex. The assay is described as follows: MSD-SET, solution equilibrium titration. As to the method:
(§1) MSD-SET assays were performed to measure affinities of the antibodies at equilibrium. Briefly, each test antibody was diluted 3-5 fold and samples were mixed with biotinylated antigen in a 48-well dish. The SET samples were equilibrated for 20-24 hours at room temperature. Meanwhile, a capture plate was coated with IgG (20 nM) and incubated overnight at 4° C. or 30 minutes at room temperature, followed by a blocking step with 5% BSA. After the capture plate was washed three times, SET samples were added and incubated for 150 seconds. The plate was washed once to remove unbound complexes. 250 ng/ml SA-Sulfotag was added then washed 3 times. 2× Read Buffer was added, and signals from the labeled bound complexes were read with the use of QuickPlex™ SQ 120 instrument.

For assay [6], the target named is T2, human LRRC33-proTGFβ1 complex. As to the kind of experiment: MSD-SET, solution equilibrium titration. As to the method: as §1
Assay [7] addresses T3, human LTBP3-proTGFβ1 complex. The assay is described as follows: MSD-SET, solution equilibrium titration. How it is done:
as §1

In assay [8] the target is T4, human GARP-proTGFβ1 complex. The assay is described as follows: MSD-SET, solution equilibrium titration. How it is done: as §1

T3 sequence (Q9NS15 866-1039 limits assumed, chain 1 of 2): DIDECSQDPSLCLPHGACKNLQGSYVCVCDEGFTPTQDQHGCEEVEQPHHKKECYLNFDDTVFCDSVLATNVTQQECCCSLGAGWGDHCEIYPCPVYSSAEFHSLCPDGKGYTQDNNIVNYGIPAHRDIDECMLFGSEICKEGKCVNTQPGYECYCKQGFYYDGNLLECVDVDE
T3 sequence (chain, as listed by the source limits assumed, chain 2 of 2): as the sequence (P01137 30-390, chain 2 of 2) above
T2 sequence (Q86YC3 other isoform, or with tags, fused parts or gaps limits assumed, chain 1 of 2): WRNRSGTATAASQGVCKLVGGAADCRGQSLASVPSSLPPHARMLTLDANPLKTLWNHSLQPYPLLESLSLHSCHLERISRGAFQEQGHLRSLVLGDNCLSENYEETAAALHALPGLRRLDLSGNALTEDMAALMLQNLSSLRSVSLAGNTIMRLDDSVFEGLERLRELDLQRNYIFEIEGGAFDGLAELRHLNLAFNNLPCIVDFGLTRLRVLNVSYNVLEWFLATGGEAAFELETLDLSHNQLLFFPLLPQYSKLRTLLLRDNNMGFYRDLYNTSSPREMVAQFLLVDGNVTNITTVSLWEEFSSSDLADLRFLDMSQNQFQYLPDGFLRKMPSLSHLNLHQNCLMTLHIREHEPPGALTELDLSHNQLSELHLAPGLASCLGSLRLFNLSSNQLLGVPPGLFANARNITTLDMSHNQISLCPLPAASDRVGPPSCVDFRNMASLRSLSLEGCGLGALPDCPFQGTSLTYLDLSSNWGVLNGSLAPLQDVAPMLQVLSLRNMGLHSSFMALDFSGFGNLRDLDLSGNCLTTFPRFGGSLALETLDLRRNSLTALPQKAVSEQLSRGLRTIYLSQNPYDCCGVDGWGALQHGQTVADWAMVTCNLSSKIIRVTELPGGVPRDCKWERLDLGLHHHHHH
T2 sequence (P01137 30-390 limits assumed, chain 2 of 2): as the sequence (P01137 30-390, chain 2 of 2) above
T1 sequence (Q14766 873-1507 limits assumed, chain 1 of 2): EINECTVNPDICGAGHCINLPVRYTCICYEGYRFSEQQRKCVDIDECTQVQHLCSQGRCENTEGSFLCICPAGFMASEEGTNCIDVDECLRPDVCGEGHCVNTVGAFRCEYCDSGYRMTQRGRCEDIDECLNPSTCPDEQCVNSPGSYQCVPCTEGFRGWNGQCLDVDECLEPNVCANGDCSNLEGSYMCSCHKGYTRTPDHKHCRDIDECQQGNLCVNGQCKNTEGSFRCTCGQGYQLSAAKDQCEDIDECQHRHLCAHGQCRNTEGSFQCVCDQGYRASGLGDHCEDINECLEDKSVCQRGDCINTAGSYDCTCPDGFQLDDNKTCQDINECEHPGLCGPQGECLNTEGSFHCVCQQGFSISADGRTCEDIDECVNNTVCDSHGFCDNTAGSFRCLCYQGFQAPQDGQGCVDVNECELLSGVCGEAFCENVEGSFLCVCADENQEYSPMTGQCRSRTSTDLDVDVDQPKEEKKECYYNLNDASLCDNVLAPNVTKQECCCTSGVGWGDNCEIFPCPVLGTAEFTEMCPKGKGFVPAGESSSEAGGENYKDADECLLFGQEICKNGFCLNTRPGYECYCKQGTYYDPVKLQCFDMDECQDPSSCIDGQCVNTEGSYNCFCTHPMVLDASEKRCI
T1 sequence (chain, as listed by the source limits assumed, chain 2 of 2): as the sequence (P01137 30-390, chain 2 of 2) above

B1: Ab22 (antibody, IgG4, V domains shown)
VH: EVQLVESGGGLVQPGGSLRLSCAASGFTFGSFSMNWVRQAPGKGLEWVSYIHSDASTIYYADSVKGRFTISRDNAKNSLYLQMNSLRAEDTAVYYCARGVLDYGDMLDPWGQGTLVTVSS
VL: DIQMTQSPSSLSASVGDRVTITCQASQDITNYLNWYQQKPGKAPKLLIYDASNLETGVPSRFSGSGSGTDFTFTISSLQPEDIATYYCQQADNHPPWTFGGGTKVEIK
In the case of B1, the Kd in assay [1] is 0.318 nM; in assay [2] it was 0.415 nM; in assay [3], 0.329 nM; in assay [4], 0.974 nM; in assay [5], 0.05 nM; in assay [6] it was 0.2 nM. For the same molecule, the Kd in assay [7] stood at 0.033 nM; in assay [8], 0.027 nM.

B2: Ab24 (antibody, IgG4, V domains shown)
VH: EVQLVESGGGLVQPGRSLRLSCAASGFTFSSFAMYWVRQAPGKGLEWVSYISPDASTIYYADSVKGRFTISRDNAKNSLYLQMNSLRAEDTAVYYCARGVLDYGDMLDPWGQGTLVTVSS
VL: DIQMTQSPSSLSASVGDRVTITCQASQDITNYLNWYQQKPGKAPKLLIYDASNLETGVPSRFSGSGSGTDFTFTISSLQPEDIATYYCQQADNHPPWTFGGGTKVEIK
For the molecule B2, the Kd in assay [1] came to 0.246 nM; in assay [2] it was 0.41 nM; in assay [3], 0.198 nM; in assay [4], 0.665 nM; in assay [5], 0.024 nM; in assay [6], 0.18 nM. The Kd in assay [7] was determined as 0.021 nM; in assay [8] it was 0.019 nM.

B3: Ab32 (antibody, IgG4, V domains shown)
VH: EVQLVESGGGLVQPGGSLRLSCAASGFTFSSFSMNWVRQAPGKGLEWVSYISPSADTIYYADSVKGRFTISRDNAKNTLYLQMNSLRAEDTAVYYCARGVWDMGDMLDPWGQGTLVTVSS
VL: DIQMTQSPSSLSASVGDRVTITCQASQDITNYLNWYQQKPGKAPKLLIYDASNLETGVPSRFSGSGSGTDFTFTISSLQPEDIATYYCQQADNHPPWTFGGGTKVEIK
As to B3, the Kd in assay [1] was determined as 0.269 nM; in assay [2] it was 0.698 nM; in assay [3] it was 0.215 nM; in assay [4], 0.496 nM; in assay [5], 0.037 nM; in assay [6], 0.087 nM. The results for the Kd in assay [7] and in assay [8] were 0.026 nM and 0.015 nM, respectively.

B4: Ab30 (antibody, IgG4, V domains shown)
VH: EVQLVESGGGLVQPGGSLRLSCAASGFTFSSFSMDWVRQAPGKGLEWVSYISPDASTIYYADSVKGRFTISRDNAKNSLYLQMNSLRAEDTAVYYCARGTLDYGDMLDPWGQGTLVTVSS
VL: DIQMTQSPSSLSASVGDRVTITCQASQDITNYLNWYQQKPGKAPKLLIYDASNLETGVPSRFSGSGSGTDFTFTISSLQPEDIATYYCQQADNHPPWTFGGGTKVEIK
Consider B4, for which the Kd was determined as 0.332 nM in assay [1]; 0.535 nM in assay [2]; 0.261 nM in assay [3]; 0.833 nM in assay [4]; 0.031 nM in assay [5]; 0.14 nM in assay [6]. Besides, the Kd in assay [7] turned out to be 0.026 nM; in assay [8], 0.022 nM.

B5: Ab31 (antibody, IgG4, V domains shown)
VH: EVQLVESGGGLVQPGGSLRLSCAASGFTFSSFSMDWVRQAPGKGLEWVSYISPDASTIYYADSVKGRFTISRDNAKNTLYLQMNSLRAEDTAVYYCARAVLDYGDMLDPWGQGTLVTVSS
VL: DIQMTQSPSSLSASVGDRVTITCQASQDITNYLNWYQQKPGKAPKLLIYDASNLETGVPSRFSGSGSGTDFTFTISSLQPEDIATYYCQQADNHPPWTFGGGTKVEIK
Regarding B5, the Kd in assay [1] is 0.236 nM; in assay [2], 0.41 nM; in assay [3] it was 0.181 nM; in assay [4], 0.581 nM; in assay [5], 0.019 nM; in assay [6], 0.096 nM. The Kd in assay [7] is 0.014 nM; in assay [8] it was 0.019 nM.
